Measurements from patent US12685772B2, “Methods for treating CAPRIN-1 expressing cancers” (TORAY INDUSTRIES, INC., priority 2020, dated 2026).

Target: T1, CAPRIN-1 protein (Homo sapiens, UniProt Q14444)
T1 construct: made in house
T1 sequence (Q14444 1-709): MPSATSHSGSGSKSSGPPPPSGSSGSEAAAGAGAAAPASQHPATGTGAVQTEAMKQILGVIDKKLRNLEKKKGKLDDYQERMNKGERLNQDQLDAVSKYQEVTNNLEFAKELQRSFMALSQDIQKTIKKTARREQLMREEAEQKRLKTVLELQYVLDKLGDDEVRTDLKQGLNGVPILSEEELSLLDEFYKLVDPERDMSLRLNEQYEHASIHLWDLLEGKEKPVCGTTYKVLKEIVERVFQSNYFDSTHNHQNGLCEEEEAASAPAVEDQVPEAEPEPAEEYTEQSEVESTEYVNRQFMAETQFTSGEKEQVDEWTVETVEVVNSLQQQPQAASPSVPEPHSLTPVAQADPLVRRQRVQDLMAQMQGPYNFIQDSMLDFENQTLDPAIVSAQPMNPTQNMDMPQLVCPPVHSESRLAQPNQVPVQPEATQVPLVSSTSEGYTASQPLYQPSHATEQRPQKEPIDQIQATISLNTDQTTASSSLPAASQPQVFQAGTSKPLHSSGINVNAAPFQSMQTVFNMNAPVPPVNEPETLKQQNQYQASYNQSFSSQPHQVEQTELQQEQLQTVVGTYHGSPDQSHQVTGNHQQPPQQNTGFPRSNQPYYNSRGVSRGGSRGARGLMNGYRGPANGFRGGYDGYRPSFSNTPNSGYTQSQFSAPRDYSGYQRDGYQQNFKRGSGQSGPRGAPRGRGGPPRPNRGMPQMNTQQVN
Experiment: ELISA using CAPRIN-1 protein immobilized on a plate
Format: binding
Experimental: One hundred (100) μg of a human CAPRIN-1 recombinant protein produced according to Example 3 of WO2010/016526 was mixed with a MPL+TDM adjuvant (Sigma) in an amount equivalent to that of the recombinant protein. The mixture was used as an antigen solution per mouse. The antigen solution was administered intraperitoneally to 6-week-old Balb/c mice (Japan SLC Inc.) and then further administered 3 times […] every week for completion of immunization. A spleen was removed on day 3 after the final immunization and then ground between two sterilized glass slides. Spleen cells were obtained by washing with PBS (−) (Nissui Pharmatheutical), centrifuging at 1500 rpm for 10 minutes, and removing supernatant, therein these were repeated 3 times. The obtained spleen cells were mixed with mouse myeloma cell SP2/0 (purchased from ATCC) at a ratio of 10:1. The PEG solution prepared by mixing 200 μl of RPMI1640 medium containing 10% FBS heated at 37° C. and 800 μl of PEG1500 (Boehringer) was added to the cells. The solution was incubated for 5 minutes for cell fusion. Centrifugation was performed at 1700 rpm for 5 minutes to remove supernatants. […] Absorbance at 450 nm and absorbance at 595 nm were measured using an absorption spectrometer. As a result, a plurality of hybridomas producing antibodies with high absorbances were selected. […]

B1: monoclonal antibody against CAPRIN-1 described in WO2013/125630: mouse monoclonal antibody with heavy-chain variable region SEQ ID NO: 114 and light-chain variable region SEQ ID NO: 115 (antibody, listed as Mus musculus, V domains shown)
VH: GPELVKPGASVKMSCKASGYTFTSYVMHWVKQKPGQGLEWIGYINPYNDGTKYNEKFKGKATLTSDKSSSTAYMELSSLTSEDSAVYYCARRYYYGSSGGYFDVWAQDHVRT
VL: DVQITQSPSYLAASPGETITINCRASKSISKYLAWYQEKPGKTNKLLIYSGSTLQSGIPSRFSGSGSGTDFTLTISSLEPEDFAMYYCQQHNEYPYTFGGGTKLEIKR
specific reactivity to CAPRIN-1 protein: exhibiting reactivity
